Measurements from article doi:10.1101/2020.02.18.954511 (bioRxiv, 2020).
Where two headings read alike, the source gives them in different places.

Key:
dynamic light scattering = molecular target: the molecule itself; experiment: dynamic light scattering
diol dehydratase PduCDE [1] = molecular target: T1, diol dehydratase PduCDE (Salmonella enterica, UniProt P37450 1-554; O31041 1-224; O31042 1-173); experiment: time-resolved fluorescence anisotropy
T1 sequence (looked up) 1: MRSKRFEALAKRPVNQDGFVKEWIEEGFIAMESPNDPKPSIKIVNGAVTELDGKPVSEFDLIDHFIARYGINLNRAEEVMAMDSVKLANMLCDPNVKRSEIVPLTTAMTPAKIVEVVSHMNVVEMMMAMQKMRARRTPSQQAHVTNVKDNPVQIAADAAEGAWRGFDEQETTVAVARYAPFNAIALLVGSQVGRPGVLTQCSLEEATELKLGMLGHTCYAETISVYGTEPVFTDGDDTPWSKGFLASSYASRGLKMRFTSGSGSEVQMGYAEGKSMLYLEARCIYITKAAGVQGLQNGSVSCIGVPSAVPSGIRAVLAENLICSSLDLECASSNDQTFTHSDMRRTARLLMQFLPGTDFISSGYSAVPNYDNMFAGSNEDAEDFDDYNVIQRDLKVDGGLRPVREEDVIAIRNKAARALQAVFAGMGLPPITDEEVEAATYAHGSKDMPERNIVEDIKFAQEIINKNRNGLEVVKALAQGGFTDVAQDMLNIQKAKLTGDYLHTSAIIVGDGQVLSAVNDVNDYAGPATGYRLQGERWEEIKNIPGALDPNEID
T1 sequence (looked up) 2: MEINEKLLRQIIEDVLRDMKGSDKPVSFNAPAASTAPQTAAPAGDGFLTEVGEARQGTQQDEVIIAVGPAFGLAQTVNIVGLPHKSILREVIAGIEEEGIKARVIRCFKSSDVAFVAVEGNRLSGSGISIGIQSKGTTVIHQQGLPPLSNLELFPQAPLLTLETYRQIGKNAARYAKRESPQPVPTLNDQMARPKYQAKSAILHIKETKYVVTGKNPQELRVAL
T1 sequence (looked up) 3: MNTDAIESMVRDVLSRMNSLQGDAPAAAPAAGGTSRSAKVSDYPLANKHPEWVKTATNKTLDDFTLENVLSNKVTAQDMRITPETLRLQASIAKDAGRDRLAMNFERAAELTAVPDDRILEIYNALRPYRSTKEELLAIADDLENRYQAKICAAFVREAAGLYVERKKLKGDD

diol dehydratase PduCDE [2] = molecular target: T1, diol dehydratase PduCDE; experiment: time-resolved fluorescence anisotropy; remark: listed apart in the source

B1: shell protein PduB (N-terminal truncated) (natural protein, Salmonella enterica, UniProt P37449 38-270, looked up)
chain: MAEKSCSLTEFVGTAIGDTLGLVIANVDTALLDAMKLEKRYRSIGILGARTGAGPHIMAADEAVKATNTEVVSIELPRDTKGGAGHGSLIILGGNDVSDVKRGIEVALKELDRTFGDVYGNEAGHIELQYTARASYALEKAFGAPIGRACGIIVGAPASVGVLMADTALKSANVEVVAYSSPAHGTSFSNEAILVISGDSGAVRQAVTSAREIGKTVLATLGSEPKNDRPSYI
Does B1 bind (dynamic light scattering)?
Result: binds

Does B1 bind (diol dehydratase PduCDE [1])?
Result: binds

B2: shell protein PduB’M38L (natural protein, Salmonella enterica, UniProt P37449 1-270, looked up)
chain: MSSNELVEQIMAQVIARVATPEQQAIPGQPQPIRETALAEKSCSLTEFVGTAIGDTLGLVIANVDTALLDAMKLEKRYRSIGILGARTGAGPHIMAADEAVKATNTEVVSIELPRDTKGGAGHGSLIILGGNDVSDVKRGIEVALKELDRTFGDVYGNEAGHIELQYTARASYALEKAFGAPIGRACGIIVGAPASVGVLMADTALKSANVEVVAYSSPAHGTSFSNEAILVISGDSGAVRQAVTSAREIGKTVLATLGSEPKNDRPSYI
Does B2 bind (diol dehydratase PduCDE [2])?
Result: binds
